Holding throughout (assay): Kinase Profiling Assay
Format in all cases: biochemical
Conditions in all cases: peptide 100 μM

Assay [1] addresses T1, ULK2(h) (Homo sapiens, UniProt Q8IYT8).
T1 sequence (Q8IYT8 1-1036): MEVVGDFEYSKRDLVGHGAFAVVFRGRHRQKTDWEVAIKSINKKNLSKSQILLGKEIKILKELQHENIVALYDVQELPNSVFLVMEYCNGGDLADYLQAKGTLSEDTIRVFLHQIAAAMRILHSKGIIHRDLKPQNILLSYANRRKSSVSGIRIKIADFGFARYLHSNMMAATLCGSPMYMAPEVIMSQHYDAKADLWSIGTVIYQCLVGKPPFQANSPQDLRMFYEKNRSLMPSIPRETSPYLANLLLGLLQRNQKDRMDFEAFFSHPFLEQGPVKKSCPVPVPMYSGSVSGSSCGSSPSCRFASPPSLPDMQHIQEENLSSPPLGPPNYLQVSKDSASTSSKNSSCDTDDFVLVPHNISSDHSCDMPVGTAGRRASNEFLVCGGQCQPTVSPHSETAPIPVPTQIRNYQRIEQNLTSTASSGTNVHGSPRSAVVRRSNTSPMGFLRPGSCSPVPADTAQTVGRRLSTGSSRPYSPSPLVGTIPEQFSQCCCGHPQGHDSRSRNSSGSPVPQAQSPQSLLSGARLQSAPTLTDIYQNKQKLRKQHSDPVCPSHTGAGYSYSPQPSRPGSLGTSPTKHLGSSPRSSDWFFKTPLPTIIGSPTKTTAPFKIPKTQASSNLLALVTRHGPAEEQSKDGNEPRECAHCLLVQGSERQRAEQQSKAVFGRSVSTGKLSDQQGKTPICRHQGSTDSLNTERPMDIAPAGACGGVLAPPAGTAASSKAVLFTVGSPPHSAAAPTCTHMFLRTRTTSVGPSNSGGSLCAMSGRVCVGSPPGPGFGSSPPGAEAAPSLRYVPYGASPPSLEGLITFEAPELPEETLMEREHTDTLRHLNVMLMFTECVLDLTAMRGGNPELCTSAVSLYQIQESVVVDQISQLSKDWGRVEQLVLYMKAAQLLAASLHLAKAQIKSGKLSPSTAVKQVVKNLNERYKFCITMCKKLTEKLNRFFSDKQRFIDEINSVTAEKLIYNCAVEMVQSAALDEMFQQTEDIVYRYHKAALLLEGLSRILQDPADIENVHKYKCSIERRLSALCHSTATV
The method in brief: (§1)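 In this 266-kinase specificity panel, every measurement was duplicated. Transfer of labeled phosphate from ATP to a cationic substrate was quantified after the substrate adhered to an anionic filter membrane and was scintillation-counted, then related to a full-activity control.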

Assay [2] addresses CHK2(R145W)(h) (Homo sapiens, UniProt O96017, R145W). In outline: as §1
The target in assay [3] is T2, Met(Y1248D)(h) (Homo sapiens, UniProt P08581, Y1230D).
T2 construct: purchased Millipore
In outline: as §1

For assay [4], the target named is DAPK2(h) (Homo sapiens, UniProt Q9UIK4). The method in brief:
as §1

The target of assay [5] is T3, Rsk4(h) (Homo sapiens, UniProt Q9UK32).
T3 construct: purchased Millipore
T3 sequence (Q9UK32 whole entry): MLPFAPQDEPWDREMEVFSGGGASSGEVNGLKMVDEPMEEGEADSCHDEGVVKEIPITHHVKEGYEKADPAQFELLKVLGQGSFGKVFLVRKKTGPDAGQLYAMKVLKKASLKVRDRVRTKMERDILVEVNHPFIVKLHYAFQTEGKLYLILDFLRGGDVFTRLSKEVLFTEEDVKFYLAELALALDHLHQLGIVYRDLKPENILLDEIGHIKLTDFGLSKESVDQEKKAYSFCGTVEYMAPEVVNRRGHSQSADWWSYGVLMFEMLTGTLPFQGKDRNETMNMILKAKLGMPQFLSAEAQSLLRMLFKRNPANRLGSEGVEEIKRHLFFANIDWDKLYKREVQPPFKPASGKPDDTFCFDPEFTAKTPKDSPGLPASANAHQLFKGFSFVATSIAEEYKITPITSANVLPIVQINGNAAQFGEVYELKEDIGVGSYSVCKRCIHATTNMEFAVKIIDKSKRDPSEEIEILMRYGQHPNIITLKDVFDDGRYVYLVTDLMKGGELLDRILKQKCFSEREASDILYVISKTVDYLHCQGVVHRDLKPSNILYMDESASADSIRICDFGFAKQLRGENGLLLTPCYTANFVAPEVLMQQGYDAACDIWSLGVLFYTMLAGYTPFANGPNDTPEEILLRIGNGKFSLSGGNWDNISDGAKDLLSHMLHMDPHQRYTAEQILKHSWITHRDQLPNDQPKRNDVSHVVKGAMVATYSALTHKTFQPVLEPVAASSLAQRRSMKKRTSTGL
In outline: as §1

Assay [6] addresses T4, Src(T341M)(h) (Homo sapiens, UniProt P12931, T341M).
T4 construct: purchased Millipore
In outline:
as §1

Assay [7] deals with EphA5(h) (Homo sapiens, UniProt P54756). The method in brief:
as §1

Assay [8] concerns the target T5, GRK7(h) (Homo sapiens, UniProt Q8WTQ7).
T5 construct: purchased Millipore
T5 sequence (Q8WTQ7 1-553): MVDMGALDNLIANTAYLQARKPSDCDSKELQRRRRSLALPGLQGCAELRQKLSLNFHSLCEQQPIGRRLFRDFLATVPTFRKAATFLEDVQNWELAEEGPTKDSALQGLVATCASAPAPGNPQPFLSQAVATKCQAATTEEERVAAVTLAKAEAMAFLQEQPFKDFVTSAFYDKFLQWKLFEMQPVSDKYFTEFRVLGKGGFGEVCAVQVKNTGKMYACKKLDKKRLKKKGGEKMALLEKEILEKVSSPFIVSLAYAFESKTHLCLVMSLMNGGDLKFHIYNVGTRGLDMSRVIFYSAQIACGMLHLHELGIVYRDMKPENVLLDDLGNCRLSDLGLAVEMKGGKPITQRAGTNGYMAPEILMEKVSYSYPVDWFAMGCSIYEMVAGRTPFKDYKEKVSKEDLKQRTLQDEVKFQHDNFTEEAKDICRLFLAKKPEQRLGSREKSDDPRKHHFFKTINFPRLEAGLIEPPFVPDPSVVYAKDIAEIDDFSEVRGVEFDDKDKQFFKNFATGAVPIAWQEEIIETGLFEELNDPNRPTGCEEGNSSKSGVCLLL
In outline: as §1

In assay [9] the target is T6, GSK3β(h) (Homo sapiens, UniProt P49841).
T6 construct: purchased Millipore
The method in brief:
as §1

Assay [10] deals with cKit(D816H)(h) (Homo sapiens, UniProt P10721, D816H). In outline:
as §1

Assay [11] has as its target PDGFRβ(h) (Homo sapiens, UniProt P09619). In outline:
as §1

The target of assay [12] is EGFR(h) (Homo sapiens, UniProt P00533). The method in brief:
as §1

Assay [13] concerns the target T7, SIK(h) (Homo sapiens, UniProt P57059).
T7 construct: purchased Millipore
The method in brief: as §1

For assay [14], the target named is PASK(h) (Homo sapiens, UniProt Q96RG2). In outline:
as §1

Assay [15] deals with T8, JNK1α1(h) (Homo sapiens, UniProt P45983).
T8 construct: purchased Millipore
In outline:
as §1

Assay [16] has as its target CDK7/cyclinH/MAT1(h) (Homo sapiens, UniProt P50613). The method in brief: as §1
Assay [17] deals with T9, JAK2(h) (Homo sapiens, UniProt O60674).
T9 construct: purchased Millipore
T9 sequence (O60674 whole entry): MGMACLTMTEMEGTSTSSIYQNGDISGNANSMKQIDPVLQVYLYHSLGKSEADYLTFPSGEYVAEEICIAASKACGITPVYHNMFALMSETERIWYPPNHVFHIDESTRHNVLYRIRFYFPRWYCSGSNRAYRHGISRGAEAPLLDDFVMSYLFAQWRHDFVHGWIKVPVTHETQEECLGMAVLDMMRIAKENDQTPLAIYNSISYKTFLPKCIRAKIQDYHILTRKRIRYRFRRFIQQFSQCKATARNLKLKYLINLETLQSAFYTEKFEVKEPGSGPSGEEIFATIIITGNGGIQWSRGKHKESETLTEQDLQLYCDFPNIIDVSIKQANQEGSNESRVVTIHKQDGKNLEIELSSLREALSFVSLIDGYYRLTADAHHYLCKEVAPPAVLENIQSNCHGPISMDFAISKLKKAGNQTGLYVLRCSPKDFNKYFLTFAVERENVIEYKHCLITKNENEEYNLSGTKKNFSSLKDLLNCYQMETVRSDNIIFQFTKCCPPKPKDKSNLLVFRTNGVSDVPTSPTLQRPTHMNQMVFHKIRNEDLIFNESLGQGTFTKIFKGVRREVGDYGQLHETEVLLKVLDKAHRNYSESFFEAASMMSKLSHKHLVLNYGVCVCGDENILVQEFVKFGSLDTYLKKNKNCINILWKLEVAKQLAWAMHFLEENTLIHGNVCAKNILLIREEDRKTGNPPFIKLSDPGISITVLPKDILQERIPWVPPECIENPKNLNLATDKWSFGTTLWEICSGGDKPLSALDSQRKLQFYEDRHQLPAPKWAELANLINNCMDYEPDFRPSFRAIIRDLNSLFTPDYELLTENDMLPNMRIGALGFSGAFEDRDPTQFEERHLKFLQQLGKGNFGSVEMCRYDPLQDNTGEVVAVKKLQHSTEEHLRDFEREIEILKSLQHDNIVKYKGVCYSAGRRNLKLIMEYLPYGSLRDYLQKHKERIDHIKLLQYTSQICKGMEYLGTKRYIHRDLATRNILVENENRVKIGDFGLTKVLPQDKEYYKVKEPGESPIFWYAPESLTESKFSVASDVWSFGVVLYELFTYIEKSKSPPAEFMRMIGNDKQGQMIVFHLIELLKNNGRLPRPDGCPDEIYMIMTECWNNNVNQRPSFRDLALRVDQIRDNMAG
In outline: as §1

No end group written: not given here.

The record followed here is patent publication US20150258192A1, “COMPOSITIONS AND METHODS FOR PREVENTING OR TREATING CHRONIC LUNG ALLOGRAFT DYSFUNCTION (CLAD) AND IDIOPATHIC PULMONARY FIBROSIS (IPF)” (priority 2014, published 2015).

Chain of CHK2(R145W)(h) (O96017 whole entry R145W): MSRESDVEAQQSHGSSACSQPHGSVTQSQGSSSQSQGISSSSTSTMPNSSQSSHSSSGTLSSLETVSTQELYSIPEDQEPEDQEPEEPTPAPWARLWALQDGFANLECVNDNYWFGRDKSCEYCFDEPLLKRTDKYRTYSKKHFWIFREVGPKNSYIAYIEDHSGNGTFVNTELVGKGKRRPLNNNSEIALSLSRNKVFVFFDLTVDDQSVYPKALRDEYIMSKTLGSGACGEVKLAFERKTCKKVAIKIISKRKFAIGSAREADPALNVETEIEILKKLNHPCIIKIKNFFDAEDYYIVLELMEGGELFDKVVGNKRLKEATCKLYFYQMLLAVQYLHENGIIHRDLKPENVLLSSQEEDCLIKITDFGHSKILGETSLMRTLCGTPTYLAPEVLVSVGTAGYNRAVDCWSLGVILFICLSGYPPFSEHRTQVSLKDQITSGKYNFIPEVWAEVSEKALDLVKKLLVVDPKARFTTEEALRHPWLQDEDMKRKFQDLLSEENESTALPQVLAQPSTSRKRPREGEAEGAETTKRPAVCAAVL
Chain of PASK(h) (Q96RG2 whole entry): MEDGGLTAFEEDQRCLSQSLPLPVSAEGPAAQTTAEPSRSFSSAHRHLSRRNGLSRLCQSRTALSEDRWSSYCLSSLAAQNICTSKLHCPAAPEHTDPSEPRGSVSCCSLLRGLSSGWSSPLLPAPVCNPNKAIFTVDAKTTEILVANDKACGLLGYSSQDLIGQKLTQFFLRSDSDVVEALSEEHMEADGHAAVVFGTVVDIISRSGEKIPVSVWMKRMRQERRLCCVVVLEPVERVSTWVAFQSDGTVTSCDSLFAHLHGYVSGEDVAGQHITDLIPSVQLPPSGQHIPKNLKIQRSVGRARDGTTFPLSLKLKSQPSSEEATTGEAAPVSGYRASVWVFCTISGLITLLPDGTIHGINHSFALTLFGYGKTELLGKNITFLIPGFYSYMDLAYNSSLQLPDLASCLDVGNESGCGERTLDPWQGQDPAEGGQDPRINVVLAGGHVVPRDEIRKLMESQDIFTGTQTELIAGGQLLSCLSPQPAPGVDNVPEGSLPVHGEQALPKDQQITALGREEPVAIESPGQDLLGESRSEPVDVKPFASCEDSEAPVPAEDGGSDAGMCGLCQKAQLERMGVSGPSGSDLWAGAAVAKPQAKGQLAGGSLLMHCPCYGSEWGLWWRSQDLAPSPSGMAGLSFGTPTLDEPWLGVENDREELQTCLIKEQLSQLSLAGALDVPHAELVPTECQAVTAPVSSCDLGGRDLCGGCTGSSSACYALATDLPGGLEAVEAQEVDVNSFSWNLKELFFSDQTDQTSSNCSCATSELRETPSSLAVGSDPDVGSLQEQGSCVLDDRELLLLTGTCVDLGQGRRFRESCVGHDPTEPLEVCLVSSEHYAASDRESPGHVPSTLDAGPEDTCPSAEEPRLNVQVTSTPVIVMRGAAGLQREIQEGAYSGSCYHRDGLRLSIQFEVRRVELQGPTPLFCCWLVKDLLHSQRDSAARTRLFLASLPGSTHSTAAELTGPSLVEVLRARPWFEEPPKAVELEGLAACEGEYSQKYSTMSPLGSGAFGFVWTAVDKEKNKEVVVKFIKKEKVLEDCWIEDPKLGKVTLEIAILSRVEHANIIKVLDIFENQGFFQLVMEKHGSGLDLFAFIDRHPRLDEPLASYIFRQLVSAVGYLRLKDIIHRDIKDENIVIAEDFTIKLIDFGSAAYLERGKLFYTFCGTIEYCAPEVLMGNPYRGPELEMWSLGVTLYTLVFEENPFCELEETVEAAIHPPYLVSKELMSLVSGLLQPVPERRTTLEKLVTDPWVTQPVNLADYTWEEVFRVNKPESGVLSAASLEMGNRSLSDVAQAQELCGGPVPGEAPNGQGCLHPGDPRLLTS
Chain of EphA5(h) (P54756 25-1037): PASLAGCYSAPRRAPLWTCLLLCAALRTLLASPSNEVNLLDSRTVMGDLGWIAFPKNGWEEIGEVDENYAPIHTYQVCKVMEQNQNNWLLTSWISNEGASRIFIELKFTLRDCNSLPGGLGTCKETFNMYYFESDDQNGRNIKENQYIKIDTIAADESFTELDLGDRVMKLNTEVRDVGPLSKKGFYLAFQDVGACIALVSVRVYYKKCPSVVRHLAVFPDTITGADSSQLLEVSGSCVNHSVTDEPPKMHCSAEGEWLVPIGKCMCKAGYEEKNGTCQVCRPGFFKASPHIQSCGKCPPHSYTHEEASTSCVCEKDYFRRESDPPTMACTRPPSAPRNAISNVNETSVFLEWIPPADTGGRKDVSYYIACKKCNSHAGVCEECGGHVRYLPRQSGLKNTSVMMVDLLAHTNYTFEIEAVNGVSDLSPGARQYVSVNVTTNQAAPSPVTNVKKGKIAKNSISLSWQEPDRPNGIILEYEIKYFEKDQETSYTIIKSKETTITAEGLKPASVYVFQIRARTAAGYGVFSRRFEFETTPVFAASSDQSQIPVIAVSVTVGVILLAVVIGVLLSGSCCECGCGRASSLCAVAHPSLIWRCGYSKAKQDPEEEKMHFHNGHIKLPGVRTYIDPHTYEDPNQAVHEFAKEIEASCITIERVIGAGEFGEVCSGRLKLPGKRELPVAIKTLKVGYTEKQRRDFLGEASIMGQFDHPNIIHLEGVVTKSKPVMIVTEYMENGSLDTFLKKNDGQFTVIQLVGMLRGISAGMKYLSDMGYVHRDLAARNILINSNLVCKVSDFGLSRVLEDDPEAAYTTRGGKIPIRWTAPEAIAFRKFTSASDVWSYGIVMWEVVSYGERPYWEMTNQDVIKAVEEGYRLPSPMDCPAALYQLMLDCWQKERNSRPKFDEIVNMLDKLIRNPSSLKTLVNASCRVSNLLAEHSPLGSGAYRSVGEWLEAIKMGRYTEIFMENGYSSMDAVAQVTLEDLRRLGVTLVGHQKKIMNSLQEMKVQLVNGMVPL

Take KAFAKLAARLYRKALARQLGVAA [MMI-0400]: the “% activity” value in [1] came to 131%; in assay [2] it was 31%; in [3], 31%; in [4] it was 16%; in assay [5], 91%; in [6], 76%. Further, the “% activity” value in assay [7] is listed as 24%; in assay [8], 100%; in assay [9], 202%; in assay [10], 143%; in [11], 53%; in assay [12] it was 16%. The “% activity” value in assay [13] is on record as 68%; in [14] it was 28%; in [15], 98%; in assay [16], 47%.
As to FAKLAARLYRKALARQLGVAA [MMI-0300], the “% activity” value in [1] is 122%; in [2], 33%; in assay [17], 133%; in assay [4], 32%; in assay [5] it was 90%; in assay [6] it was 70%. For the same sequence, the “% activity” value in assay [7] came to 18%; in assay [8], 122%; in assay [9], 205%; in assay [10], 126%; in assay [11], 81%; in assay [12], 21%. For the same sequence, the “% activity” value in assay [13] turned out to be 66%; in assay [14], 29%; in assay [15], 97%; in [16], 65%.
YARAAARQARAKALARQLGVAA [MMI-0100]: the “% activity” value in [1] worked out at 123%; in assay [2], 97%; in assay [3], 87%; in assay [17], 89%; in assay [5], 99%; in assay [7], 110%. Moreover, the figures for the “% activity” value in assay [10], in [14] and in assay [15] were 79%, 81% and 91%, respectively.
Take “HRRIKAWLKKIKALARQLGVAA (Mammal) [MMI-0500]”: the “% activity” value came to 124% in assay [1]; 3% in assay [2]; 218% in [3]; 49% in assay [17]; 3% in [4]; 29% in assay [5]. Further, the “% activity” value in [6] was determined as 59%; in assay [7], 42%; in assay [8] it was 93%; in [9], 238%; in assay [10], 194%; in assay [11], 40%. Besides, the “% activity” value in assay [12] is recorded as -1%; in assay [13], 40%; in [14], 9%; in assay [16], 15%.
With “YARAAARQARAKALNRQLGVA (Mammal) [MMI-0200]”, the “% activity” value was found to be 132% in [1]; 81% in assay [2]; 118% in assay [3]; 131% in assay [17]; 92% in assay [4]; 125% in assay [5]. In addition, the “% activity” value in [6] came out at 56%; in assay [7], 123%; in assay [8], 124%; in [9], 132%; in assay [11] it was 137%; in assay [12], 83%. The “% activity” value is 60% in assay [14] and 67% in assay [16].
